Tested on: Escherichia coli TOP10
Experiment: shrunken log2 fold change of peptide-encoding DNA abundance (4.5 h post-induction vs induction); higher = less antimicrobial activity (less host growth inhibition)
Details: time post-induction: 4.5 h; library: site-saturation at positions 5, 18, 19, 20
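Note: peptides expressed intracellularly from a pBAD plasmid library in pooled LB shake-flask culture, induced with 0.3% L-arabinose, DNA abundance read by NGS, three biological replicates, DESeq2 with apeglm shrinkage.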

Row | Sequence | shrunken log2 fold change
1 | RRIRIRPPRLPRPRPRPLSVPRP | -0.254
2 | RRIRIRPPRLPRPRPRPLTVPRP | -0.114
3 | RRIRIRPPRLPRPRPRPLVAPRP | -0.0566
4 | RRIRIRPPRLPRPRPRPLVQPRP | -0.884
5 | RRIRIRPPRLPRPRPRPLVYPRP | -0.592
6 | RRIRIRPPRLPRPRPRPLWAPRP | -0.174
7 | RRIRIRPPRLPRPRPRPLWLPRP | -0.208
8 | RRIRIRPPRLPRPRPRPLWNPRP | -0.598
9 | RRIRIRPPRLPRPRPRPLYPPRP | -0.561
10 | RRIRIRPPRLPRPRPRPMADPRP | -0.0382
11 | RRIRIRPPRLPRPRPRPMASPRP | -0.00783
12 | RRIRIRPPRLPRPRPRPMCHPRP | -0.316
13 | RRIRIRPPRLPRPRPRPMCWPRP | -0.00326
14 | RRIRIRPPRLPRPRPRPMCYPRP | -1
15 | RRIRIRPPRLPRPRPRPMDDPRP | 0.0135
16 | RRIRIRPPRLPRPRPRPMDGPRP | -0.108
17 | RRIRIRPPRLPRPRPRPMFEPRP | -0.0768
18 | RRIRIRPPRLPRPRPRPMFGPRP | -0.0865
19 | RRIRIRPPRLPRPRPRPMKGPRP | -0.0335
20 | RRIRIRPPRLPRPRPRPMLDPRP | 0.0726
21 | RRIRIRPPRLPRPRPRPMMDPRP | -0.132
22 | RRIRIRPPRLPRPRPRPMMYPRP | -0.13
23 | RRIRIRPPRLPRPRPRPMNIPRP | -0.0512
24 | RRIRIRPPRLPRPRPRPMPMPRP | -0.0159
25 | RRIRIRPPRLPRPRPRPMPQPRP | -0.133

Row | Sequence | shrunken log2 fold change
26 | RRIRIRPPRLPRPRPRPMPYPRP | -0.0219
27 | RRIRIRPPRLPRPRPRPMQAPRP | -0.00238
28 | RRIRIRPPRLPRPRPRPMRPPRP | 0.194
29 | RRIRIRPPRLPRPRPRPMTCPRP | -0.00783
30 | RRIRIRPPRLPRPRPRPMTDPRP | -0.91
31 | RRIRIRPPRLPRPRPRPMTYPRP | -0.0592
32 | RRIRIRPPRLPRPRPRPMWDPRP | 0.205
33 | RRIRIRPPRLPRPRPRPMWIPRP | -0.208
34 | RRIRIRPPRLPRPRPRPMWVPRP | -0.11
35 | RRIRIRPPRLPRPRPRPNAAPRP | -0.014
36 | RRIRIRPPRLPRPRPRPNASPRP | 0.109
37 | RRIRIRPPRLPRPRPRPNCIPRP | -0.408
38 | RRIRIRPPRLPRPRPRPNCWPRP | 0.0114
39 | RRIRIRPPRLPRPRPRPNEQPRP | 0.0369
40 | RRIRIRPPRLPRPRPRPNETPRP | -0.0216
41 | RRIRIRPPRLPRPRPRPNEYPRP | -0.182
42 | RRIRIRPPRLPRPRPRPNFEPRP | -0.218
43 | RRIRIRPPRLPRPRPRPNGDPRP | 8.33e-05
44 | RRIRIRPPRLPRPRPRPNHSPRP | -0.639
45 | RRIRIRPPRLPRPRPRPNHWPRP | 0.0534
46 | RRIRIRPPRLPRPRPRPNISPRP | -0.199
47 | RRIRIRPPRLPRPRPRPNIWPRP | 0.127
48 | RRIRIRPPRLPRPRPRPNKHPRP | -0.727
49 | RRIRIRPPRLPRPRPRPNLAPRP | -0.114
50 | RRIRIRPPRLPRPRPRPNLQPRP | -0.285

Row | Sequence | shrunken log2 fold change
51 | RRIRIRPPRLPRPRPRPNNAPRP | -0.444
52 | RRIRIRPPRLPRPRPRPNPIPRP | -0.155
53 | RRIRIRPPRLPRPRPRPNPRPRP | -0.225
54 | RRIRIRPPRLPRPRPRPNPSPRP | 0.0641
55 | RRIRIRPPRLPRPRPRPNPYPRP | -0.659
56 | RRIRIRPPRLPRPRPRPNTQPRP | -0.295
57 | RRIRIRPPRLPRPRPRPPASPRP | 0.276
58 | RRIRIRPPRLPRPRPRPPAYPRP | -0.384
59 | RRIRIRPPRLPRPRPRPPCDPRP | -0.48
60 | RRIRIRPPRLPRPRPRPPCKPRP | -0.422
61 | RRIRIRPPRLPRPRPRPPCMPRP | -0.169
62 | RRIRIRPPRLPRPRPRPPFDPRP | -0.0876
63 | RRIRIRPPRLPRPRPRPPFHPRP | -0.513
64 | RRIRIRPPRLPRPRPRPPFRPRP | -0.0473
65 | RRIRIRPPRLPRPRPRPPHGPRP | -0.0482
66 | RRIRIRPPRLPRPRPRPPHWPRP | 0.0943
67 | RRIRIRPPRLPRPRPRPPKRPRP | 0.0802
68 | RRIRIRPPRLPRPRPRPPKYPRP | -0.886
69 | RRIRIRPPRLPRPRPRPPMWPRP | 0.00227
70 | RRIRIRPPRLPRPRPRPPPFPRP | 0.481
71 | RRIRIRPPRLPRPRPRPPPVPRP | 0.414
72 | RRIRIRPPRLPRPRPRPPRHPRP | 0.166
73 | RRIRIRPPRLPRPRPRPPSNPRP | -0.613
74 | RRIRIRPPRLPRPRPRPPTHPRP | -0.184
75 | RRIRIRPPRLPRPRPRPPVGPRP | 0.59

Row | Sequence | shrunken log2 fold change
76 | RRIRIRPPRLPRPRPRPPYAPRP | -0.274
77 | RRIRIRPPRLPRPRPRPQAAPRP | -0.115
78 | RRIRIRPPRLPRPRPRPQALPRP | -0.0788
79 | RRIRIRPPRLPRPRPRPQDAPRP | -0.449
80 | RRIRIRPPRLPRPRPRPQDCPRP | 0.00138
81 | RRIRIRPPRLPRPRPRPQDNPRP | -0.954
82 | RRIRIRPPRLPRPRPRPQFFPRP | -0.304
83 | RRIRIRPPRLPRPRPRPQFPPRP | -0.0492
84 | RRIRIRPPRLPRPRPRPQHEPRP | -0.262
85 | RRIRIRPPRLPRPRPRPQHRPRP | -0.116
86 | RRIRIRPPRLPRPRPRPQKCPRP | -0.506
87 | RRIRIRPPRLPRPRPRPQKRPRP | -0.143
88 | RRIRIRPPRLPRPRPRPQLCPRP | -0.222
89 | RRIRIRPPRLPRPRPRPQLFPRP | 0.667
90 | RRIRIRPPRLPRPRPRPQNAPRP | -0.297
91 | RRIRIRPPRLPRPRPRPQNMPRP | -0.235
92 | RRIRIRPPRLPRPRPRPQNSPRP | -0.595
93 | RRIRIRPPRLPRPRPRPQPSPRP | -0.214
94 | RRIRIRPPRLPRPRPRPQQEPRP | -0.056
95 | RRIRIRPPRLPRPRPRPQQFPRP | -0.709
96 | RRIRIRPPRLPRPRPRPQQPPRP | 0.349
97 | RRIRIRPPRLPRPRPRPQRHPRP | -0.401
98 | RRIRIRPPRLPRPRPRPQSAPRP | 0.0313
99 | RRIRIRPPRLPRPRPRPQSGPRP | 0.00632
100 | RRIRIRPPRLPRPRPRPQTDPRP | -0.232

Row | Sequence | shrunken log2 fold change
101 | RRIRIRPPRLPRPRPRPQTKPRP | 0.13
102 | RRIRIRPPRLPRPRPRPQTMPRP | -0.0804
103 | RRIRIRPPRLPRPRPRPQTPPRP | -0.0927
104 | RRIRIRPPRLPRPRPRPQVQPRP | -0.195
105 | RRIRIRPPRLPRPRPRPQVYPRP | 0.0822
106 | RRIRIRPPRLPRPRPRPRAAPRP | 0.458
107 | RRIRIRPPRLPRPRPRPRAVPRP | 0.314
108 | RRIRIRPPRLPRPRPRPRCAPRP | 0.204
109 | RRIRIRPPRLPRPRPRPRDFPRP | -0.157
110 | RRIRIRPPRLPRPRPRPRENPRP | 0.0178
111 | RRIRIRPPRLPRPRPRPRIGPRP | -0.0469
112 | RRIRIRPPRLPRPRPRPRITPRP | -0.354
113 | RRIRIRPPRLPRPRPRPRLFPRP | 0.0705
114 | RRIRIRPPRLPRPRPRPRLNPRP | -0.247
115 | RRIRIRPPRLPRPRPRPRLPPRP | 0.161
116 | RRIRIRPPRLPRPRPRPRLSPRP | -0.325
117 | RRIRIRPPRLPRPRPRPRNIPRP | -0.00545
118 | RRIRIRPPRLPRPRPRPRNRPRP | -0.125
119 | RRIRIRPPRLPRPRPRPRQDPRP | 0.0231
120 | RRIRIRPPRLPRPRPRPRRYPRP | 0.111
121 | RRIRIRPPRLPRPRPRPRSEPRP | -0.0944
122 | RRIRIRPPRLPRPRPRPRSRPRP | 0.0781
123 | RRIRIRPPRLPRPRPRPRTVPRP | -0.197
124 | RRIRIRPPRLPRPRPRPRVDPRP | 0.061
125 | RRIRIRPPRLPRPRPRPRWIPRP | -0.0611

Row | Sequence | shrunken log2 fold change
126 | RRIRIRPPRLPRPRPRPRWKPRP | 0.0818
127 | RRIRIRPPRLPRPRPRPRYSPRP | -0.484
128 | RRIRIRPPRLPRPRPRPSDNPRP | -0.421
129 | RRIRIRPPRLPRPRPRPSFFPRP | -0.654
130 | RRIRIRPPRLPRPRPRPSFYPRP | -0.776
131 | RRIRIRPPRLPRPRPRPSGCPRP | -0.137
132 | RRIRIRPPRLPRPRPRPSHKPRP | -0.671
133 | RRIRIRPPRLPRPRPRPSHMPRP | -0.425
134 | RRIRIRPPRLPRPRPRPSKAPRP | -0.176
135 | RRIRIRPPRLPRPRPRPSMMPRP | -0.886
136 | RRIRIRPPRLPRPRPRPSNYPRP | -0.086
137 | RRIRIRPPRLPRPRPRPSPEPRP | -0.241
138 | RRIRIRPPRLPRPRPRPSPVPRP | -0.297
139 | RRIRIRPPRLPRPRPRPSPYPRP | -0.396
140 | RRIRIRPPRLPRPRPRPSQWPRP | -1.15
141 | RRIRIRPPRLPRPRPRPSRAPRP | -0.212
142 | RRIRIRPPRLPRPRPRPSRIPRP | -0.0712
143 | RRIRIRPPRLPRPRPRPSSQPRP | -0.674
144 | RRIRIRPPRLPRPRPRPSVDPRP | -0.326
145 | RRIRIRPPRLPRPRPRPSYHPRP | -0.933
146 | RRIRIRPPRLPRPRPRPSYLPRP | -0.831
147 | RRIRIRPPRLPRPRPRPSYTPRP | -1.06
148 | RRIRIRPPRLPRPRPRPTACPRP | 0.0015
149 | RRIRIRPPRLPRPRPRPTADPRP | -0.063
150 | RRIRIRPPRLPRPRPRPTDSPRP | -0.237
